Test results: the supplement of paper PMC7877785
± gives the uncertainty stated by the source.

Assay: self-splicing fitness, log relative to wild type (ln ratio); higher = more splicing; Tetrahymena group I intron in knt gene, E. coli kanamycin selection, DiMSum; sequences stand for … in CUCUCU…GGAGGGAAAAGUUAUCAGGCAUGCACCUGGUAGCUAGUCUUUAAACCAAUAGAUUGCAUCGGUUUAAAAGGCAAGACCGUCAAAUUGCGGGAAAGGGGUCAACAGCCGUUCAGUACCAAGUCUCAGGGGAAACUUUGAGAUGGCCUUGCAAAGGGUAUGGUAAUAAGCUGACGGACAUGGUCCUAACCACGCAGCCAAGUCCUAAGUCAACAGAUCUUCUGUUGAUAUGGAUGCAGUUCACAGACUAAAUGUCGGUCGGGGAAGAUGUAUUCUUCUCAUAAGAUAUAGUCGGACCUCUCCUUAAUGGGAGCUAGCGGAUGAAGUGAUGCAACACUGGAGCCGCUGGGAACUAAUUUGUAUGCGAAAGUAUAUUGAUUAGUUUUGGAGUACUCGUGGUCG
Summary of the method: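 The eight P1ex-region nucleotides of an intron in the knt kanamycin-resistance gene on pET-22b(+) were all randomised and the library put into E. coli BL21(DE3). Six replicate transformations were grown overnight at 37°C or 30°C on LB agar with or without 25 μg/mL kanamycin, together with 100 μg/mL carbenicillin, 50 μM IPTG and 0.2% rhamnose. Colonies were pooled and amplicon-sequenced on an Illumina HiSeq 2500. Fitness from DiMSum is the error-weighted combination of wild-type-normalised replicate fold changes, kanamycin over none.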

In the case of AUGAAGCAAUAUUACGUCGU, the “self-splicing fitness (ln)” value (30 °C) is reported as -0.896 ± 0.07 and the “self-splicing fitness (ln)” value (37 °C) is reported as -0.0581 ± 0.089.

For AUGAAGCAAUAUUACGUGAU, the “self-splicing fitness (ln)” value (30 °C) was -1.24 ± 0.073 and the “self-splicing fitness (ln)” value (37 °C) was -0.839 ± 0.085.

With AUGAAGCAAUAUUACGUGCG the “self-splicing fitness (ln)” value (30 °C) was -0.65 ± 0.08 and the “self-splicing fitness (ln)” value (37 °C) was 0.532 ± 0.11.

In the case of AUGAAGCAAUAUUACGUGGA, the “self-splicing fitness (ln)” value (30 °C) is reported as -2.73 ± 0.096 and the “self-splicing fitness (ln)” value (37 °C) is reported as -1.45 ± 0.11.

With AUGCAGCAAUAUUACGAAUU the “self-splicing fitness (ln)” value (30 °C) was -1.9 ± 0.1 and the “self-splicing fitness (ln)” value (37 °C) was -0.246 ± 0.12.

With AUGCAGCAAUAUUACGACGC the “self-splicing fitness (ln)” value (30 °C) was -1.48 ± 0.11 and the “self-splicing fitness (ln)” value (37 °C) was -1.32 ± 0.12.

With AUGCAGCAAUAUUACGAGAC the “self-splicing fitness (ln)” value (30 °C) was -3.17 ± 0.29 and the “self-splicing fitness (ln)” value (37 °C) was -2.59 ± 0.33.

In the case of AUGCAGCAAUAUUACGAGCC, the “self-splicing fitness (ln)” value (30 °C) is reported as -2.69 ± 0.2 and the “self-splicing fitness (ln)” value (37 °C) is reported as -0.935 ± 0.18.

For AUGCAGCAAUAUUACGAGCU, the “self-splicing fitness (ln)” value (30 °C) was -0.624 ± 0.073 and the “self-splicing fitness (ln)” value (37 °C) was -0.565 ± 0.088.

For AUGCAGCAAUAUUACGAGGU, the “self-splicing fitness (ln)” value (30 °C) was -3.04 ± 0.16 and the “self-splicing fitness (ln)” value (37 °C) was -2.27 ± 0.13.

For AUGCAGCAAUAUUACGAUAA, the “self-splicing fitness (ln)” value (30 °C) was -1.55 ± 0.1 and the “self-splicing fitness (ln)” value (37 °C) was 0.424 ± 0.092.

With AUGCAGCAAUAUUACGCACA the “self-splicing fitness (ln)” value (30 °C) was -0.62 ± 0.11 and the “self-splicing fitness (ln)” value (37 °C) was 0.467 ± 0.13.

For AUGCAGCAAUAUUACGCUGG, the “self-splicing fitness (ln)” value (30 °C) was -2.5 ± 0.17 and the “self-splicing fitness (ln)” value (37 °C) was -2.68 ± 0.25.

In the case of AUGCAGCAAUAUUACGGAGC, the “self-splicing fitness (ln)” value (30 °C) is reported as -2.6 ± 0.15 and the “self-splicing fitness (ln)” value (37 °C) is reported as -2.99 ± 0.18.

With AUGCAGCAAUAUUACGGAGG the “self-splicing fitness (ln)” value (30 °C) was -3.79 ± 0.2 and the “self-splicing fitness (ln)” value (37 °C) was -2.07 ± 0.15.

In the case of AUGCAGCAAUAUUACGGCCA, the “self-splicing fitness (ln)” value (30 °C) is reported as -0.753 ± 0.14 and the “self-splicing fitness (ln)” value (37 °C) is reported as 0.267 ± 0.14.

In the case of AUGCAGCAAUAUUACGGGCC, the “self-splicing fitness (ln)” value (30 °C) is reported as -1.43 ± 0.1 and the “self-splicing fitness (ln)” value (37 °C) is reported as -1.02 ± 0.11.

With AUGCAGCAAUAUUACGGGGC the “self-splicing fitness (ln)” value (30 °C) was -4.09 ± 0.23 and the “self-splicing fitness (ln)” value (37 °C) was -2.54 ± 0.21.

In the case of AUGCAGCAAUAUUACGGGUC, the “self-splicing fitness (ln)” value (30 °C) is reported as -3.56 ± 0.31 and the “self-splicing fitness (ln)” value (37 °C) is reported as -1.61 ± 0.13.

For AUGCAGCAAUAUUACGGGUU, the “self-splicing fitness (ln)” value (30 °C) was -1.98 ± 0.075 and the “self-splicing fitness (ln)” value (37 °C) was -1.29 ± 0.096.

For AUGCAGCAAUAUUACGGUCU, the “self-splicing fitness (ln)” value (30 °C) was -0.211 ± 0.078 and the “self-splicing fitness (ln)” value (37 °C) was 0.0315 ± 0.091.

With AUGCAGCAAUAUUACGUAGC the “self-splicing fitness (ln)” value (30 °C) was -3.81 ± 0.37 and the “self-splicing fitness (ln)” value (37 °C) was -2.34 ± 0.24.

For AUGCAGCAAUAUUACGUAUU, the “self-splicing fitness (ln)” value (30 °C) was -4.03 ± 0.26 and the “self-splicing fitness (ln)” value (37 °C) was -1.69 ± 0.14.

For AUGCAGCAAUAUUACGUGGC, the “self-splicing fitness (ln)” value (30 °C) was -4.09 ± 0.28 and the “self-splicing fitness (ln)” value (37 °C) was -2.53 ± 0.19.

With AUGCAGCAAUAUUACGUGUG the “self-splicing fitness (ln)” value (30 °C) was -2.45 ± 0.071 and the “self-splicing fitness (ln)” value (37 °C) was -1.44 ± 0.085.

With AUGCAGCAAUAUUACGUUCG the “self-splicing fitness (ln)” value (30 °C) was -0.728 ± 0.059 and the “self-splicing fitness (ln)” value (37 °C) was -0.798 ± 0.089.

With AUGCAGCAAUAUUACGUUUC the “self-splicing fitness (ln)” value (30 °C) was -3.96 ± 0.18 and the “self-splicing fitness (ln)” value (37 °C) was -3.31 ± 0.32.

In the case of AUGGAGCAAUAUUACGAAUA, the “self-splicing fitness (ln)” value (30 °C) is reported as -2.15 ± 0.34 and the “self-splicing fitness (ln)” value (37 °C) is reported as -1.08 ± 0.36.

With AUGGAGCAAUAUUACGACCG the “self-splicing fitness (ln)” value (30 °C) was -3.83 ± 0.37 and the “self-splicing fitness (ln)” value (37 °C) was -1.19 ± 0.26.

For AUGGAGCAAUAUUACGAUGU, the “self-splicing fitness (ln)” value (30 °C) was -1.25 ± 0.14 and the “self-splicing fitness (ln)” value (37 °C) was -0.184 ± 0.2.

For AUGGAGCAAUAUUACGCACC, the “self-splicing fitness (ln)” value (30 °C) was -2.45 ± 0.4 and the “self-splicing fitness (ln)” value (37 °C) was -1.26 ± 0.22.

In the case of AUGGAGCAAUAUUACGCCAC, the “self-splicing fitness (ln)” value (30 °C) is reported as -2.95 ± 0.41.

In the case of AUGGAGCAAUAUUACGCCCU, the “self-splicing fitness (ln)” value (30 °C) is reported as -2.84 ± 0.3 and the “self-splicing fitness (ln)” value (37 °C) is reported as -2.13 ± 0.37.

With AUGGAGCAAUAUUACGCGGG the “self-splicing fitness (ln)” value (30 °C) was -2.84 ± 0.45.

With AUGGAGCAAUAUUACGCUGU the “self-splicing fitness (ln)” value (30 °C) was -2.13 ± 0.21 and the “self-splicing fitness (ln)” value (37 °C) was -1.37 ± 0.44.

With AUGGAGCAAUAUUACGGACA the “self-splicing fitness (ln)” value (30 °C) was -3.23 ± 0.43 and the “self-splicing fitness (ln)” value (37 °C) was -1.91 ± 0.2.

With AUGGAGCAAUAUUACGGAGG the “self-splicing fitness (ln)” value (30 °C) was -2.11 ± 0.17 and the “self-splicing fitness (ln)” value (37 °C) was -2.54 ± 0.3.

For AUGGAGCAAUAUUACGGGGU, the “self-splicing fitness (ln)” value (37 °C) was -2.27 ± 0.37.

With AUGGAGCAAUAUUACGGGUA the “self-splicing fitness (ln)” value (30 °C) was -3.28 ± 0.27 and the “self-splicing fitness (ln)” value (37 °C) was -3.06 ± 0.35.
